Columns and labels:
[1] = target: Wild-type human APP695 (β-amyloid precursor protein), P05067
[2] = target: T1, Full-length APLP1 (APP-like protein 1), P51693
T1 chain: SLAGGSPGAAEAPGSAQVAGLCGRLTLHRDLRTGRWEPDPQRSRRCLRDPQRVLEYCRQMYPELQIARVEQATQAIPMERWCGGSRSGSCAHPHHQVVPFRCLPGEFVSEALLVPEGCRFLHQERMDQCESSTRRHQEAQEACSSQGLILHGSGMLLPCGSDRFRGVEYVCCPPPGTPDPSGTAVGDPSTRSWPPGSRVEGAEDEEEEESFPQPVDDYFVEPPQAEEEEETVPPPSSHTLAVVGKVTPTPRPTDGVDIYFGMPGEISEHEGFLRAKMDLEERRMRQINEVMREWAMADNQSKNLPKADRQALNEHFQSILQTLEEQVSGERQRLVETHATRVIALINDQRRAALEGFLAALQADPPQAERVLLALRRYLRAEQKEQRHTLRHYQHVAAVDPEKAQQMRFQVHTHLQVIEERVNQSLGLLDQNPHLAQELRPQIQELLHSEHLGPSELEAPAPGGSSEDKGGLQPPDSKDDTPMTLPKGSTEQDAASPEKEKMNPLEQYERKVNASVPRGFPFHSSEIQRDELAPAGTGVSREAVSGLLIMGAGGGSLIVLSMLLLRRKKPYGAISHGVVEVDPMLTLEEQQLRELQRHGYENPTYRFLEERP

[3] = target: APP-C125 (C-terminal 125 amino acids of APP695), P05067
[4] = target: Full-length APLP2 (APP-like protein 2), Q06481
[5] = target: APP D664A mutant (APP695), P05067

Chain of Full-length APLP2 (APP-like protein 2), Q06481 (Q06481 32-763): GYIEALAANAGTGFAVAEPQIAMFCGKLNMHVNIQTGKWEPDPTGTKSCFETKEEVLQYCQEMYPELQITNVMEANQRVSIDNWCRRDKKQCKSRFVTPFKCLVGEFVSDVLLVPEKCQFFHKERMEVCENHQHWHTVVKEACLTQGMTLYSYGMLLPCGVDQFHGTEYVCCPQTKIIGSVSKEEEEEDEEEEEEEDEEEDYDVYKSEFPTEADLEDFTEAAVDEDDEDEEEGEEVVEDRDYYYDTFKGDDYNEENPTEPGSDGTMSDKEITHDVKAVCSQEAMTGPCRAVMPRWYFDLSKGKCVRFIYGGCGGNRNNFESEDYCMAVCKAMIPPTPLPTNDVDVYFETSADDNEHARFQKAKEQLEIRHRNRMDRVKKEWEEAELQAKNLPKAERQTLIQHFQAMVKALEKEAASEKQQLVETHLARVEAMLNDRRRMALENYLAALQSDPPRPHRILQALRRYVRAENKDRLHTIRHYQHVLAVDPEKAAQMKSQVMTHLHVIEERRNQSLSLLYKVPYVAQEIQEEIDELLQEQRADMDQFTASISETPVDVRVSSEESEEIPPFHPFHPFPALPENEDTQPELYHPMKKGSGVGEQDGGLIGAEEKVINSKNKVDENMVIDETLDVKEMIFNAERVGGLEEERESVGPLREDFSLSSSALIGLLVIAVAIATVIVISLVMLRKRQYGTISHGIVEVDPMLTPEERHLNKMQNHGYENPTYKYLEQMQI

B1: Recombinant caspase-6 (protein)
chain: AFYKREMFDPAEKYKMDHRRRGIALIFNHERFFWHLTLPERRGTCADRDNLTRRFSDLGFEVKCFNDLKAEELLLKIHEVSTVSHADADCFVCVFLSHGEGNHIYAYDAKIEIQTLTGLFKGDKCHSLVGKPKIFIIQACRGNQHDVPVIPLDVVDNQTEKLDTNITEVDAASVYTLPAGADFLMCYSVAEGYYSHRETVNGSWYIQDLCEMLGKYGSSLEFTELLTLVNRKVSQRRVDFCKDPSAIGKKQVPCFASMLTKKLHFFPKSN
in vitro cleavage of 35S-labelled in vitro transcribed/translated protein [1]: APP can be cleaved by caspases-3 and -6, but not by caspase-8
in vitro cleavage of 35S-labelled in vitro transcribed/translated protein [2]: APLP1, on the other hand, was cleaved in vitro only by caspase-3, not by caspase-6 or -8
in vitro caspase cleavage [3]: caspases-3, -6 and -8 are capable of cleaving APP
in vitro cleavage of 35S-labelled in vitro transcribed/translated protein [4]: Like APLP1, APLP2 may be cleaved in vitro by caspase-3 only, but with very low efficiency, if at all

B2: Recombinant caspase-7 (protein)
chain: AKPDRSSFVPSLFSKKKKNVTMRSIKTTRDRVPTYQYNMNFEKLGKCIIINNKNFDKVTGMGVRNGTDKDAEALFKCFRSLGFDVIVYNDCSCAKMQDLLKKASEEDHTNAACFACILLSHGEENVIYGKDGVTPIKDLTAHFRGDRCKTLLEKPKLFFIQACRGTELDDGIQADSGPINDTDANPRYKIPVEADFLFAYSTVPGYYSWRSPGRGSWFVQALCSILEEHGKDLEIMQILTRVNDRVARHFESQSDDPHFHEKKQIPCVVSMLTKELYFSQ
generation of an APP-Neo-immunoreactive epitope by recombinant caspase in vitro [1]: an APP-Neo-immunoreactive epitope was detected in immunoblots of in vitro transcribed/translated full length APP that had been incubated in the presence of recombinant caspase-3, but not caspase-7 or -8

B3: Recombinant caspase-3 (protein)
chain: SGISLDNSYKMDYPEMGLCIIINNKNFHKSTGMTSRSGTDVDAANLRETFRNLKYEVRNKNDLTREEIVELMRDVSKEDHSKRSSFVCVLLSHGEEGIIFGTNGPVDLKKITNFFRGDRCRSLTGKPKLFIIQACRGTELDCGIETDSGVDDDMACHKIPVEADFLYAYSTAPGYYSWRNSKDGSWFIQSLCAMLKQYADKLEFMHILTRVNRKVATEFESFSFDATFHAKKQIPCIVSMLTKELYFYH
generation of an APP-Neo-immunoreactive epitope by recombinant caspase in vitro [1]: an APP-Neo-immunoreactive epitope was detected in immunoblots of in vitro transcribed/translated full length APP that had been incubated in the presence of recombinant caspase-3, but not caspase-7 or -8
in vitro cleavage of 35S-labelled in vitro transcribed/translated protein [1]: APP can be cleaved by caspases-3 and -6, but not by caspase-8
generation of an APP-Neo-immunoreactive epitope by recombinant caspase in vitro [2]: in vitro transcribed/translated APLP1 and APLP2 yielded APP-Neo immunoreactive cleavage products only when incubated in the presence of recombinant caspase-3
in vitro cleavage of 35S-labelled in vitro transcribed/translated protein [2]: APLP1, on the other hand, was cleaved in vitro only by caspase-3, not by caspase-6 or -8
in vitro caspase cleavage [3]: caspases-3, -6 and -8 are capable of cleaving APP
generation of an APP-Neo-immunoreactive epitope by recombinant caspase in vitro [4]: in vitro transcribed/translated APLP1 and APLP2 yielded APP-Neo immunoreactive cleavage products only when incubated in the presence of recombinant caspase-3
in vitro cleavage of 35S-labelled in vitro transcribed/translated protein [4]: APLP2 may be cleaved in vitro by caspase-3 only, but with very low efficiency, if at all

B4: Recombinant caspase-8 (protein)
chain: SESQTLDKVYQMKSKPRGYCLIINNHNFAKAREKVPKLHSIRDRNGTHLDAGALTTTFEELHFEIKPHDDCTVEQIYEILKIYQLMDHSNMDCFICCILSHGDKGIIYGTDGQEAPIYELTSQFTGLKCPSLAGKPKVFFIQACQGDNYQKGIPVETDSEEQPYLEMDLSSPQTRYIPDEADFLLGMATVNNCVSYRNPAEGTWYIQSLCQSLRERCPRGDDILTILTEVNYEVSNKDDKKNMGKQMPQPTFTLRKKLVFPSD
generation of an APP-Neo-immunoreactive epitope by recombinant caspase in vitro [1]: an APP-Neo-immunoreactive epitope was detected in immunoblots of in vitro transcribed/translated full length APP that had been incubated in the presence of recombinant caspase-3, but not caspase-7 or -8
in vitro cleavage of 35S-labelled in vitro transcribed/translated protein [1]: APP can be cleaved by caspases-3 and -6, but not by caspase-8
in vitro cleavage of 35S-labelled in vitro transcribed/translated protein [2]: APLP1, on the other hand, was cleaved in vitro only by caspase-3, not by caspase-6 or -8
in vitro caspase cleavage [3]: caspases-3, -6 and -8 are capable of cleaving APP
in vitro cleavage of 35S-labelled in vitro transcribed/translated protein [4]: Like APLP1, APLP2 may be cleaved in vitro by caspase-3 only, but with very low efficiency, if at all
generation of an APP-Neo-immunoreactive epitope by recombinant caspase in vitro [5]: APPD664A, did not yield detectable APP-Neo immunoreactive products after incubation with recombinant caspase-3, -7 or -8
